According to paper PMC3337949:

Key:
[1] = biological target: substrate-trapping Csw, Csw^C583S (Csw^CS) (Drosophila); experiment: co-IP
[2] = biological target: wild type Corkscrew (Csw^WT) (Drosophila); experiment: co-IP

fold change of the co-immunoprecipitated amount against Csw^WT [1]: 1.7 fold | fold change of the co-immunoprecipitated amount against Draper-I [2]: 24 fold
Substance: HA-tagged Draper-II (receptor)
